Laboratory results from the supplement of paper PMC10899765.

Tested on: MCF10A
Experiment: one-nucleolus phenotype percent effect (relative to siNT 0% and siNOL11 100%); higher = more cells with one nucleolus (ribosome biogenesis inhibition)
Conditions: 20 nM; 72 h
Method: (§1)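 After 72 h, cells were fixed and stained with Hoechst and anti-fibrillarin, and nucleoli per nucleus were counted with CellProfiler. Values are plate-adjusted percent effect for the one-nucleolus and 5+ nucleoli phenotypes, normalised to siNT (0%) and to the positive controls siNOL11 or siKIF11 (100%), as the mean of biological triplicates. Percent viability is the nuclei count relative to siNT.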

| Sequence | one-nucleolus phenotype percent effect [%] |
| --- | --- |
| UGUCAGUUUGUCAAAUACCCCA [hsa-miR-223-3p] | -4.68 |
| UAGACCAUCUUUCUAGAGUAU [hsa-miR-6502-3p] | -0.125 |
| GAUAUUCAGAGGCUAGGUGG [hsa-miR-6074] | -6.04 |
| UUCCCUUUGUCAUCCUAUGCCU [hsa-miR-204-5p] | -10.4 |
| GCAGCAGGGUGAAACUGACACA [hsa-miR-761] | 4.85 |
| ACAAAGUGCUUCCCUUUAGAGUGU [hsa-miR-520g] | -7.99 |
| UGUCUACAUUAAUGAAAAGAGC [hsa-miR-3618] | 16.7 |
| AUGAGACUCAUGUAAAACAUCUU [hsa-miR-3672] | 34.3 |
| CCUCACCACCCCUUCUGCCUGCA [hsa-miR-6511b-3p] | -22.7 |
| GCGGUGAUCCCGAUGGUGUGAGC [hsa-miR-598-5p] | -24 |
| CAUGGGGUAGGGCAGAGUAGG [hsa-miR-6890-5p] | 21.6 |
| AACAUAGAGGAAAUUCCACGU [hsa-miR-376c-3p] | -18.9 |
| UGCAGGGGUCGGGUGGGCCAGG [hsa-miR-6722-3p] | 9 |
| AAAAACUGCAAUCACUUUUGC [hsa-miR-548az-3p] | -6.63 |
| UCCUCUUCUCCCUCCUCCCAG [hsa-miR-877-3p] | 6.33 |
| CCUCCCAUGCCAAGAACUCCC [hsa-miR-2116-3p] | -24.7 |
| GACUGGACAAGCUGAGGAA [hsa-miR-3654] | -25.9 |
| CAAGCUCGUGUCUGUGGGUCCG [hsa-miR-99b-3p] | 8.24 |
| CCACCUCCCCUGCAAACGUCCA [hsa-miR-1306-5p] | -25.8 |
| CCAGACUGUGGCUGACCAGAGG [hsa-miR-4494] | -29.5 |
| CAAAGUGCUCAUAGUGCAGGUAG [hsa-miR-20b-5p] | -12 |
| AGCAAGGCGGCAUCUCUCUGAU [hsa-miR-4708-3p] | 16.1 |
| CGCUCUAGGCACCGCAGCA [hsa-miR-1301-5p] | -24.1 |
| UUGAAUUCUUGGCCUUAAGUGAU [hsa-miR-4452] | -19.4 |
| AAACAUUCGCGGUGCACUUCUU [hsa-miR-543] | -1.05 |
| UCCCCUCCACUUUCCUCCUAG [hsa-miR-6887-3p] | -0.315 |
| CUCCGUUUGCCUGUUUCGCUG [hsa-miR-1468] | -8.9 |
| UUGGGGUGGAGGGCCAAGGAGC [hsa-miR-6819-5p] | 37.8 |
| CUGUAAUAUAAAUUUAAUUUAUU [hsa-miR-2054] | -17.6 |
| CUUCCUCGUCUGUCUGCCCC [hsa-miR-1238-3p] | 13.2 |

Tested on: MCF10A
Experiment: 5+ nucleoli phenotype percent effect (relative to siNT 0% and siKIF11 100%); higher = more cells with five or more nucleoli
Conditions: 20 nM; 72 h
Method: as §1

| Sequence | 5+ nucleoli phenotype percent effect [%] |
| --- | --- |
| CAGGUCACGUCUCUGCAGUUAC [hsa-miR-370-5p] | 5.92 |
| GUGUGGAAGAUGGGAGGAGAAA [hsa-miR-6833-5p] | 4.29 |
| CUGGGGAGAUCCUCGAGGUUGG [hsa-miR-3150a-3p] | -16.4 |
| UCUUCUCUGUUUUGGCCAUGUG [hsa-miR-942] | 12.1 |
| CUGGUACAGGCCUGGGGGACAG [hsa-miR-150-3p] | 1.02 |
| AGCAGUGUUUGUUUUGCCCACA [hsa-miR-6499-3p] | -48 |
| CAGAUCAUGGGACUGUCUCAG [hsa-miR-5694] | 22.8 |
| GUUUGCACGGGUGGGCCUUGUCU [hsa-miR-557] | -30.1 |
| UCAGUGCACUACAGAACUUUGU [hsa-miR-148a-3p] | 68.2 |
| UCAGCAUUCAUUGGCACCAGAGA [hsa-miR-7157-5p] | -18.8 |
| UUGUGUCAAUAUGCGAUGAUGU [hsa-miR-592] | -26.9 |
| UGGGGGAGGAAGGACAGGCCAU [hsa-miR-7111-5p] | -6.11 |
| AAGUGCCGCCAUCUUUUGAGUGU [hsa-miR-371a-3p] | -0.0057 |
| GUAAGCAGGGGCUCUGGGUGA [hsa-miR-6792-5p] | -36.8 |
| CCCUUGGGUCUGAUGGGGUAG [hsa-miR-3189-3p] | -6.22 |
| CUGGACUGAGCCGUGCUACUGG [hsa-miR-1269a] | -26.1 |
| UAGUCCCUUCCUUGAAGCGGUC [hsa-miR-2114-5p] | -46 |
| GAUCCAUCUCUGCCUGUAUUGGC [hsa-miR-7151-5p] | -8.39 |
| CCAAGGAAGGAGGCUGGACAUC [hsa-miR-6830-5p] | -10.3 |
| UGGGCAGGGGCUUAUUGUAGGAG [hsa-miR-6721-5p] | 22 |

| Sequence | 5+ nucleoli phenotype percent effect [%] |
| --- | --- |
| CCCAGAUAAUGGCACUCUCAA [hsa-miR-488-5p] | 32.8 |
| CAAAGUUUAAGAUCCUUGAAGU [hsa-miR-561-3p] | 23.4 |
| UUCUGGAAUUCUGUGUGAGGGA [hsa-miR-1299] | -3.13 |
| AACAACAAAAUCACUAGUCUUCCA [hsa-miR-3529-3p] | 0.722 |
| UCCCACGUUGUGGCCCAGCAG [hsa-miR-662] | 35.3 |
| UAGCAGCACAGAAAUAUUGGC [hsa-miR-195-5p] | -10.1 |
| AGCGGGGAGGAAGUGGGCGCUGCUU [hsa-miR-4706] | -0.458 |
| AAAAGUAAUUGCGGUUUUUGCC [hsa-miR-548am-5p] | 39.6 |
| UUCCUAUGCAUAUACUUCUUUG [hsa-miR-202-5p] | 12.8 |
| UGUCAGUUUGUCAAAUACCCCA [hsa-miR-223-3p] | 7.19 |
| UAGACCAUCUUUCUAGAGUAU [hsa-miR-6502-3p] | -0.273 |
| GAUAUUCAGAGGCUAGGUGG [hsa-miR-6074] | -1.31 |
| UUCCCUUUGUCAUCCUAUGCCU [hsa-miR-204-5p] | 46 |
| GCAGCAGGGUGAAACUGACACA [hsa-miR-761] | 9.29 |
| ACAAAGUGCUUCCCUUUAGAGUGU [hsa-miR-520g] | 24.4 |
| UGUCUACAUUAAUGAAAAGAGC [hsa-miR-3618] | -1.03 |
| AUGAGACUCAUGUAAAACAUCUU [hsa-miR-3672] | -24.8 |
| CCUCACCACCCCUUCUGCCUGCA [hsa-miR-6511b-3p] | 22.9 |
| GCGGUGAUCCCGAUGGUGUGAGC [hsa-miR-598-5p] | 32.8 |
| CAUGGGGUAGGGCAGAGUAGG [hsa-miR-6890-5p] | -15.7 |

| Sequence | 5+ nucleoli phenotype percent effect [%] |
| --- | --- |
| AACAUAGAGGAAAUUCCACGU [hsa-miR-376c-3p] | 55.4 |
| UGCAGGGGUCGGGUGGGCCAGG [hsa-miR-6722-3p] | -25.2 |
| AAAAACUGCAAUCACUUUUGC [hsa-miR-548az-3p] | 7.93 |
| UCCUCUUCUCCCUCCUCCCAG [hsa-miR-877-3p] | -15.4 |
| CCUCCCAUGCCAAGAACUCCC [hsa-miR-2116-3p] | 58.4 |
| GACUGGACAAGCUGAGGAA [hsa-miR-3654] | 68.1 |
| CAAGCUCGUGUCUGUGGGUCCG [hsa-miR-99b-3p] | -2.82 |
| CCACCUCCCCUGCAAACGUCCA [hsa-miR-1306-5p] | 33 |
| CCAGACUGUGGCUGACCAGAGG [hsa-miR-4494] | 52.3 |
| CAAAGUGCUCAUAGUGCAGGUAG [hsa-miR-20b-5p] | 9.26 |
| AGCAAGGCGGCAUCUCUCUGAU [hsa-miR-4708-3p] | -21.8 |
| CGCUCUAGGCACCGCAGCA [hsa-miR-1301-5p] | 95.7 |
| UUGAAUUCUUGGCCUUAAGUGAU [hsa-miR-4452] | -9.56 |
| AAACAUUCGCGGUGCACUUCUU [hsa-miR-543] | 0.749 |
| UCCCCUCCACUUUCCUCCUAG [hsa-miR-6887-3p] | -13.1 |
| CUCCGUUUGCCUGUUUCGCUG [hsa-miR-1468] | 30.4 |
| UUGGGGUGGAGGGCCAAGGAGC [hsa-miR-6819-5p] | 2.57 |
| CUGUAAUAUAAAUUUAAUUUAUU [hsa-miR-2054] | 28 |
| CUUCCUCGUCUGUCUGCCCC [hsa-miR-1238-3p] | -4.82 |
